In PMC5675522 (Angiogenesis, 2017):

What was measured:
[1] = target: T1, recombinant human Wnt5a (human, UniProt P41221 62-380); test: ELISA
T1 sequence (looked up): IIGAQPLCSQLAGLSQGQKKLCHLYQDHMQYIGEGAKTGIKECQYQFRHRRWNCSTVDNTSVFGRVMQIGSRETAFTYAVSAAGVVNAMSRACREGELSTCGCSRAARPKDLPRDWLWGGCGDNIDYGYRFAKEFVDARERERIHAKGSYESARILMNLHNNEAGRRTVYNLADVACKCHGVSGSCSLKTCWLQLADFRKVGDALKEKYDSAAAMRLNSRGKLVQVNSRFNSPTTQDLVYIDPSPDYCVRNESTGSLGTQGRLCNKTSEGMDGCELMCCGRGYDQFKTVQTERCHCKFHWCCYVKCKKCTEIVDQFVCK

[2] = target: T2, recombinant human SFRP2 (secreted frizzled-related protein 2) with C-terminal hexahistidine tag (human, UniProt Q96HF1 25-295); test: ELISA
T2 sequence (looked up): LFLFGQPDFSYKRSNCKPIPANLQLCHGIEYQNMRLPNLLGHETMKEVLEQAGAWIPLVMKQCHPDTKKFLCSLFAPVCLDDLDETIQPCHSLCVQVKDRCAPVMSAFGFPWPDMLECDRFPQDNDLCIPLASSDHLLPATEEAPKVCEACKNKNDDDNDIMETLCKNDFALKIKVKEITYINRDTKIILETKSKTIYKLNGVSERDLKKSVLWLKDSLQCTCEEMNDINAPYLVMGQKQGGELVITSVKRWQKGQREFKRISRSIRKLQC

- EC50 [1]: 216 nM
- Kd [1]: 108 nM
- EC50 [2]: 205 nM
- Kd [2]: 103 nM
B1: Frizzled-5 Fc Fusion protein (Fc fusion, human, UniProt Q13467 27-238, looked up)
chain: ASKAPVCQEITVPMCRGIGYNLTHMPNQFNHDTQDEAGLEVHQFWPLVEIQCSPDLRFFLCSMYTPICLPDYHKPLPPCRSVCERAKAGCSPLMRQYGFAWPERMSCDRLPVLGRDAEVLCMDYNRSEATTAPPRPFPAKPTLPGPPGAPASGGECPAGGPFVCKCREPFVPILKESHPLYNKVRTGQVPNCAVPCYQPSFSADERTFATFW
